# Test results taken from publication PMC10942602.
# How the values were obtained:
# GFP-Nrxn3α(25b+) (rat) [1] = experiment: immunostaining of cells or tissue; co-culture (2 days) of HEK293 cells secreting myc-tagged C1ql2 or C1ql2.K262E with primary hippocampal neurons transfected with GFP-Nrxn3α(25b+); fixed, stained for myc and GFP; area of the masked HEK293 cell covered by GFP-Nrxn3α(25b+)-positive neuronal profiles; 25 cells per condition and experiment, N=3
# GFP-Nrxn3α(25b+) (rat) [2] = target: GFP-Nrxn3α(25b+) (rat)
# Sequence of GFP-Nrxn3α(25b+) (rat) (Q07310 28-1578): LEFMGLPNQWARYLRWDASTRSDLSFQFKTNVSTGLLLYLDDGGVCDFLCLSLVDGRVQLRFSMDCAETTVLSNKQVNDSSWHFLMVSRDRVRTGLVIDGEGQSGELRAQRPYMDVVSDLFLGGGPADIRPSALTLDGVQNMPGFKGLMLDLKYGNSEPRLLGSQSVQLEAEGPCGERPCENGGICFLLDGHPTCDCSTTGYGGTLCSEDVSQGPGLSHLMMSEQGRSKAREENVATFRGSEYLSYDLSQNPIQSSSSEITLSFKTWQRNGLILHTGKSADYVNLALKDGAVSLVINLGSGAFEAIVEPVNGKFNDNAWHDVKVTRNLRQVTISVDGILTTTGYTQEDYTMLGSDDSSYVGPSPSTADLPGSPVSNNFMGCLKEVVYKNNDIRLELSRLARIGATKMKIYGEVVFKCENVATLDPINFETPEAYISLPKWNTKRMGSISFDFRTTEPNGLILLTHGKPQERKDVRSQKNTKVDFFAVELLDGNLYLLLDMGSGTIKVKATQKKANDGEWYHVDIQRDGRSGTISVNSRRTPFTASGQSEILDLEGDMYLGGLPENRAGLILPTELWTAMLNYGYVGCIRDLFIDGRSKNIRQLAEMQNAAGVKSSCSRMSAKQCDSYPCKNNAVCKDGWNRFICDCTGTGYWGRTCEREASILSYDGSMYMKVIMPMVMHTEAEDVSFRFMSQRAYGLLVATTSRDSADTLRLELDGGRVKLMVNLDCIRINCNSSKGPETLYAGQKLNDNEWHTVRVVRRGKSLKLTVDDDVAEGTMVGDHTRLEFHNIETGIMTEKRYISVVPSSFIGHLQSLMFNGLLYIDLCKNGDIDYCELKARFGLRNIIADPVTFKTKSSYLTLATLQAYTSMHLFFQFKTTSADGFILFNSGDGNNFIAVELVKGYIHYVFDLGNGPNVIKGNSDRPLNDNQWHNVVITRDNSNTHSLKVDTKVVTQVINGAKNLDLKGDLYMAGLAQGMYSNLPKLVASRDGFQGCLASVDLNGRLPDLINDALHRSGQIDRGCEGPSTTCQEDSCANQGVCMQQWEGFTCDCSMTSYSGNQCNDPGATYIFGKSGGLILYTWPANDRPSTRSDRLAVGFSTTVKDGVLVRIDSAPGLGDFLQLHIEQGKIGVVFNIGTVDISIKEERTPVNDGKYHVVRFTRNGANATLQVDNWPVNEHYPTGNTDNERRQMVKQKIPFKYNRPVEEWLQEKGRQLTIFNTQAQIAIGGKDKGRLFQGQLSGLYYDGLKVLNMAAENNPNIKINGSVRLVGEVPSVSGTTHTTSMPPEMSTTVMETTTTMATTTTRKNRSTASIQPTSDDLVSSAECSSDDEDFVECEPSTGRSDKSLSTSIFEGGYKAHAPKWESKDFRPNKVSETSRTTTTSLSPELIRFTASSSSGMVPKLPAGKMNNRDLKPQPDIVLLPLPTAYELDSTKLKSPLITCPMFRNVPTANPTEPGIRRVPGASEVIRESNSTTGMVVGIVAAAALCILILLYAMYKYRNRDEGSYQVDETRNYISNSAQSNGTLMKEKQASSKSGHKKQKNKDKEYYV
# Sequence of 6xHis-myc-tagged C1ql2 (Q8CFR0 22-287): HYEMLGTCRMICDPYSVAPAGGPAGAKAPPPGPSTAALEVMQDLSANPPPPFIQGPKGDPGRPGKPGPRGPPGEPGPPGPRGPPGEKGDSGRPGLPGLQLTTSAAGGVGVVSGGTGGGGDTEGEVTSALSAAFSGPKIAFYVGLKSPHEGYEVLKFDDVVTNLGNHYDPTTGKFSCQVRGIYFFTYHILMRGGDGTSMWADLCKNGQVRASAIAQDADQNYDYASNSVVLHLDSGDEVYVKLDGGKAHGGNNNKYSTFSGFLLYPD
vGlut1 accumulation in GFP-Nrxn3α(25b+)-expressing neurons contacting HEK293 cells expressing C1ql2.K262E (area of the HEK293 cell covered by vGlut1) (GFP-Nrxn3α(25b+) (rat) [2]),Substance,surface area of HEK293 cells covered by GFP-Nrxn3α(25b+)-positive neuronal profiles (GFP-Nrxn3α(25b+) (rat) [1])
–,6xHis-myc-tagged C1ql2 (from UniProt Q8CFR0 22-287) (natural protein),40
16.9,6xHis-myc-tagged C1ql2.K262E (from UniProt Q8CFR0 22-287) (natural protein),–
